Biological target: T1, h-PUS10 (recombinant PUS10 from total HEK293T extract) (human, UniProt Q3MIT2 1-529)
T1 sequence: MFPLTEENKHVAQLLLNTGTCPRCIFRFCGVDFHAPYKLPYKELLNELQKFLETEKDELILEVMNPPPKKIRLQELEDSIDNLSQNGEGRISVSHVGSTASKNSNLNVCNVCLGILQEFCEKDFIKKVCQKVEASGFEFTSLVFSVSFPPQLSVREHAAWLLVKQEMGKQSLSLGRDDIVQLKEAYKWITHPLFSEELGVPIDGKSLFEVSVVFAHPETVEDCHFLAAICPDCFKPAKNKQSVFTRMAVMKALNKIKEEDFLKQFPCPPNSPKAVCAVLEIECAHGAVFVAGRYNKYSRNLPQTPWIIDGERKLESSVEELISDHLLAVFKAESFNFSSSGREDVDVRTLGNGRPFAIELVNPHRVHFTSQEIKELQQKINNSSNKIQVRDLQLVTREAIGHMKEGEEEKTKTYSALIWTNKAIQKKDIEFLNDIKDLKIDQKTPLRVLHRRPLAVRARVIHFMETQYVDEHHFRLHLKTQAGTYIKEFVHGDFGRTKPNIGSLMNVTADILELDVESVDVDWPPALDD
Experiment: EMSA

B1: mutated tRNAAU-Ala (U59A, G60A; GAAA at 57-60) (structured_RNA)
RNA: GGGGAAUUAGCUCAAAUGGUAGAGCGCUCGCUUAGCAUGCGAGAGGUAGCGGGAUCGAAACCCGCAUUCUCCA
modifications: unmodified transcript
binding result: binds

Reference: PMC7749629
